Bridge positions count the residues as written; N and C are the ends. Ends that are not written are not given here.

The target of one data set is seabream Oxtrb (Sparus aurata, UniProt R9WVY7). Nature of the data set: Activation of seabream Oxtrb in transfected HEK293T cells (pCRE-luc / pSRE-luc reporters, Fluo-4 AM Ca2+). The class given is cell-based, gilthead seabream (Sparus aurata).
Data set [1] deals with X. laevis oocytes expressing the seabream Oxtrb and Aqp1aa. As to conditions: not told.
In data set [2] the target is seabream oxytocin receptor Oxtrb (gilthead seabream (Sparus aurata)).
The target of data set [3] is seabream arginine vasopressin receptor Avpr1aa (gilthead seabream (Sparus aurata)).
Data set [4] shares this target. The source holds these as a separate data set.

For orientation: EC50 means the midpoint of the concentration-response curve. In the case of “CYISNCPIG-NH2 (ends and bridges not checked) [Oxt]”, the “pCRE-mediated luciferase activity (cAMP)” value in the data set with seabream Oxtrb (HEK293T cells expressing Oxtrb) is “did not induce measurable increases”. Further, in the data set with seabream Oxtrb (HEK293T cells expressing Oxtrb, 10^-12 to 10^-5 M), the “pSRE-induced luciferase activity (PKC activation)” value is “concentration-dependent increase”. The “intracellular Ca2+ concentration ([Ca2+]i)” value with seabream Oxtrb (HEK293T cells expressing Oxtrb, Fluo-4 AM) was “concentration-dependent increase”. Moreover, the concentration for a half-maximal effect (EC50) with seabream Oxtrb (Oxt on Oxtrb, HEK293T, read-out: approximate EC50 on cognate receptor) was around 10 nM. For the same molecule, the “oocyte permeability (P f) and channel accumulation in the plasma membrane” value in data set [1] is on record as “reduction of oocyte permeability”.

B1: oxytocin (Oxt, formerly isotocin), synthetic nonapeptide (peptide)
peptide: CYISNCPIG-NH2
modifications: disulfide 1-6; ends not checked
With B1, in data set [2], the EC50 of receptor activation (pSRE-luciferase activity and [Ca2+]i) in HEK293T cells expressing Oxtrb, Oxt 10^-12 to 10^-5 M is 1e-08 M. In addition, the EC50 of cross-activation of Avpr1aa by Oxt in HEK293T cells (Figure 4D), against that of Avp (fold (EC50 of Oxt over EC50 of Avp)) in data set [3] was determined as 10.

B2: arginine vasopressin (Avp, formerly vasotocin), synthetic nonapeptide (peptide)
peptide: CYIQNCPRG-NH2
modifications: disulfide 1-6; ends not checked
Take B2: the EC50 of receptor activation (pSRE-luciferase activity and [Ca2+]i) in HEK293T cells expressing Avpr1aa, Avp 10^-12 to 10^-5 M in data set [4] is 1e-08 M. Moreover, the EC50 of PKC (pSRE-luciferase) activation and [Ca2+]i increase in HEK293T cells, Avp on Avpr1aa against Oxt on Oxtrb in data set [3] (scale: fold) came to 10.
